Measured values: article PMC5693252
Like-named read-outs stand apart in the source and are kept apart here.

Key:
Assay in all cases: native MS
[1] = target: protein kinase A regulatory type II (RII) subunit (UniProt P12367)
AKAP79(297-427) = AKAP79(297-427) (UniProt P24588)
[2] = target: protein kinase A regulatory type II (RII) subunit (UniProt P12367); remark: listed apart in the source

Sequence of UniProt P24588 (P24588 297-427): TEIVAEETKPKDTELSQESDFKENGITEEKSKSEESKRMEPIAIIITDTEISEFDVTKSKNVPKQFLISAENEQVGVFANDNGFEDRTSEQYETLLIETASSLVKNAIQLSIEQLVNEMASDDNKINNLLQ

protein kinase A regulatory type II (RII) subunit (from UniProt P12367 1-401) (natural protein)
2: stoichiometry N (RII chains in the oligomer) [1] | stoichiometry N (RII chains per AKAP79(297-427)) (AKAP79(297-427)) | stoichiometry N (RII chains in the oligomer) [2]
